Blank lines part the entries; values can stand above or below the molecule they belong to.
Assays:
ATGL [1] = settings: cited from earlier work
Text: Extensive research on the physiological role of ATGL has identified complex regulatory mechanisms for its activity on the transcriptional and post-translational level ([12], [13]). Direct protein-protein interaction of ATGL with the protein comparative gene identification 58 (CGI-58) increases ATGL activity up to 20-fold ([14]). Inhibition of ATGL due to direct interaction with the small, 103-amino acid protein G0/G1 switch gene 2 (G0S2) was discovered in 2010 and confirmed using human and murine proteins ([15][–][21]). The highest G0S2 expression is found in adipose tissues, but it is also pr ... || Activation of ATGL by CGI-58 is considered as fasting response upon β-adrenergic stimulation and phosphorylation of PKA ([12]). Recent studies have strengthened the role of G0S2 as the so-called master regulator of basal and stimulated lipolysis ([27]). mRNA levels of G0S2 respond strongly to hormonal stimuli, yet the dose-dependent inhibition of ATGL by G0S2 itself is reported to be independent of phosphorylation events ([18], [20], [21], [28], [29]). Thus, regulation of the expression levels of G0S2, and consequently the protein concentration, resembles a potent mean to regulate lipid mobili ... || Next, we investigated the specificity of the peptide hGW2052. ATGL and HSL together account for more than 95% of intracellular TG hydrolase activity in white adipose tissue (WAT) ([48]). […]

mATGL [2] = experiment: TG hydrolase activity, E. coli expressed mATGL, CGI-58 activated, hG0S2 truncations (Fig. 1C-E); format: biochemical, mouse; settings: mATGL E. coli extract (50 μg), 2.5 μg purified mCGI-58, 30 μg lysate of E. coli expressing hG0S2 variant, [3H]triolein, triplicates
Method: Protein concentrations were determined as described below.
FIGURE 1. Minimal sequence requirements of human G0S2 for ATGL inhibition. A, graphical representation of full-length and shortened versions of hG0S2, those capable of inhibiting ATGL activity are illustrated in black. The largely hydrophobic sequence stretch from Val-28 to Met-42 is depicted in light gray. B–E, activity assays were performed in the presence of CGI-58 as indicated by an asterisk (ATGL*). G0S2 and variants thereof were expressed in E. coli and added as cell lysates. Overexpressed mATGL from E. coli lysates was used for all assays with the exception of the assay shown in B. B, inhibition of TG hydrolase activity of mATGL containing COS-7 cell extracts by WT and C-terminally truncated hG0S2 variants. C, inhibition of TG hydrolase activity of mATGL by WT and C-terminally truncated hG0S2 variants. D, inhibition of TG hydrolase activity of mATGL by WT hG0S2 and variants with N-terminal deletions. E, effect of different N- and C-terminal truncations in hG0S2 on mATGL activity. The fusion tag smt3 is shown as control.

mATGL [3] = molecular target: mATGL (Mus musculus, UniProt Q8BJ56); experiment: TG hydrolase activity of CGI-58-stimulated mATGL (mATGL*) expressed in E. coli; settings: read-out: half-maximal inhibitory concentration (IC50), CGI-58-stimulated ATGL; mATGL from E. coli (25 μg lysate protein) with 2.5 μg mCGI-58; [3H]triolein substrate; triplicates; Fig. 2E (hGW2052), 2F (WT hG0S2)
Method: The peptides were dissolved in 100% DMSO, and concentrations were determined via the absorbance at 280 nm. The final DMSO concentration in the activity assay was ≤1%. The control peptide was prepared the same way.
TG hydrolase activity assay was performed as described ([45]). To screen for the inhibitory capacity of various hG0S2 truncations, 30 μg of protein of cell lysates were incubated with the [^3H]triolein substrate together with 50 μg of cell extract of Strep-mATGL (or COS-7-mATGL) and 2.5 μg of purified mCGI-58. As a control, lysates of the His6-Smt tag were incubated under the same conditions. […] TG substrate was prepared with 1.67 mM triolein, 10 μCi/ml [9,10-^3H]triolein (PerkinElmer Life Sciences), and 190 μM phosphatidylcholine/phosphatidylinositol (3:1) (Sigma) and diluted to the respective concentrations after sonication. Assays with CGI-58 co-activated ATGL were performed on a smaller scale. […] Lysates using LacZ-expressing cells were used as controls. The reaction was terminated by adding 650 μl of methanol/chloroform/heptane (10:9:7) and 200 μl of 100 mM potassium carbonate buffer, pH 10.5 (adjusted with boric acid). The radioactivity in 200 μl of the upper phase (450 μl in total) was determined by liquid scintillation counting.

ATGL [4] = settings: cited from earlier work; remark: listed apart in the source
Text: Activation of ATGL by CGI-58 is considered as fasting response upon β-adrenergic stimulation and phosphorylation of PKA ([12]). Recent studies have strengthened the role of G0S2 as the so-called master regulator of basal and stimulated lipolysis ([27]). mRNA levels of G0S2 respond strongly to hormonal stimuli, yet the dose-dependent inhibition of ATGL by G0S2 itself is reported to be independent of phosphorylation events ([18], [20], [21], [28], [29]). Thus, regulation of the expression levels of G0S2, and consequently the protein concentration, resembles a potent mean to regulate lipid mobili ... || Structural knowledge on ATGL is very limited. It is predicted to exert lipolytic activity via a catalytic dyad that resides in the patatin domain within the N-terminal half of the lipase ([7], [50]). […] In contrast, Atglis ...

Sequence of mATGL (Mus musculus, UniProt Q8BJ56) (Q8BJ56 whole entry): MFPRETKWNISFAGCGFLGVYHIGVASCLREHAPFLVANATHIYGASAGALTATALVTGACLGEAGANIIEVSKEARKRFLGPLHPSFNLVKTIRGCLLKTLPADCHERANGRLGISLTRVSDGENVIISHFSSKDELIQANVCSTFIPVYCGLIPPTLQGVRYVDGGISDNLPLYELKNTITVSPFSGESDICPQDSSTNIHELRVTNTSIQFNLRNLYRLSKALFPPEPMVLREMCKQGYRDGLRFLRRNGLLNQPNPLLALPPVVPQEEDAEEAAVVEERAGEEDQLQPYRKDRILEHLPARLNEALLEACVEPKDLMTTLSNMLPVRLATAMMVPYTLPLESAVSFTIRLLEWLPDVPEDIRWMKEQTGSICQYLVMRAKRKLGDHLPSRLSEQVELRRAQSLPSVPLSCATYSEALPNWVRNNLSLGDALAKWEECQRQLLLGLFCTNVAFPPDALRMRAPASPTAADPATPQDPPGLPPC
Sequence of mATGL (Mus musculus, UniProt Q8BJ56) (Q9DBL9 whole entry partner): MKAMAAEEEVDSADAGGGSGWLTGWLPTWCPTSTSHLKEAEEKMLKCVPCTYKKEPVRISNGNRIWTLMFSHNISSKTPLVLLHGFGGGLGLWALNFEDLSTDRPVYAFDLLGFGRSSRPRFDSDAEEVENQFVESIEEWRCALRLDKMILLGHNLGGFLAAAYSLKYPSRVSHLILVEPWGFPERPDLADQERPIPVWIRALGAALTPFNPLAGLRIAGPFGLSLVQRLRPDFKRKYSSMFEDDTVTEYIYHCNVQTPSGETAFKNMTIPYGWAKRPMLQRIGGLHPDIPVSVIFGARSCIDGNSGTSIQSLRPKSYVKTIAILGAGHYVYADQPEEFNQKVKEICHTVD

B1: CGI-58: comparative gene identification 58, protein co-activator of ATGL (protein, UniProt Q8WTS1 2-349, looked up)
1-acylglycerol-3-phosphate …: AAEEEEVDSADTGERSGWLTGWLPTWCPTSISHLKEAEEKMLKCVPCTYKKEPVRISNGNKIWTLKFSHNISNKTPLVLLHGFGGGLGLWALNFGDLCTNRPVYAFDLLGFGRSSRPRFDSDAEEVENQFVESIEEWRCALGLDKMILLGHNLGGFLAAAYSLKYPSRVNHLILVEPWGFPERPDLADQDRPIPVWIRALGAALTPFNPLAGLRIAGPFGLSLVQRLRPDFKRKYSSMFEDDTVTEYIYHCNVQTPSGETAFKNMTIPYGWAKRPMLQRIGKMHPDIPVSVIFGARSCIDGNSGTSIQSLRPHSYVKTIAILGAGHYVYADQPEEFNQKVKEICDTVD
increase of ATGL activity (ATGL [1]; direct protein-protein interaction with ATGL, ref [14]): up to 20 fold

B2: G0S2 truncated after residue Gly-30: Truncation of G0S2 after residue Gly-30 (N-terminal) (protein, UniProt P27469 30-103, looked up, fragment)
chain: GSVLALFGVVLGLMETVCSPFTAARRLRDQEAAVAELQAALERQALQKQALQEKGKQQDTVLGGRALSNRQHAS
inhibition of TG hydrolase activity (result in words) (mATGL [2]): complete loss of the capacity to inhibit ATGL

IC50 (mATGL [3]): 19 nM
B3: hG0S2: full-length human G0S2, 103-amino acid protein, expressed in E. coli (protein)
chain: METVQELIPLAKEMMAQKRKGKMVKLYVLGSVLALFGVVLGLMETVCSPFTAARRLRDQEAAVAELQAALERQALQKQALQEKGKQQDTVLGGRALSNRQHAS
modifications: left off: His6, N-terminal, cleaved | Smt, N-terminal, cleaved
notes: full-length human G0S2, 103-amino acid protein, expressed in E. coli
site of interaction with ATGL (ATGL [4]; ref [15]): interacts with the N-terminal catalytic domain of ATGL

B4: hG0S2_27–103: N-terminally truncated hG0S2 until residue Tyr-27 (protein, UniProt P27469 27-103, looked up, fragment)
chain: YVLGSVLALFGVVLGLMETVCSPFTAARRLRDQEAAVAELQAALERQALQKQALQEKGKQQDTVLGGRALSNRQHAS
inhibition of TG hydrolase activity (result in words) (mATGL [2]): fully inhibit ATGL activity
inhibition of TG hydrolase activity (result in words) (mATGL [2]; listed as Tyr-27–Ser-103): fully able to inhibit ATGL

B5: G0S2 Met-1–Gln-73: truncated variant of G0S2 encompassing the residues Met-1–Gln-73 (protein, UniProt P27469 1-73, looked up, fragment)
chain: METVQELIPLAKEMMAQKRKGKMVKLYVLGSVLALFGVVLGLMETVCSPFTAARRLRDQEAAVAELQAALERQ
inhibition of ATGL (in words) (ATGL [1]; truncated/deleted G0S2 variants, ref [20]): inhibits the enzyme
interaction with ATGL (ATGL [4]; ref [20]): interacts with ATGL
